From US20240360223A1

How the values were obtained:
[1] = biological target: poly-specificity reagent (PSR); experiment: flow cytometry PSR assay: test article on protein A beads, biotinylated PSR detected with streptavidin-PE
[2] = biological target: poly-specificity reagent (PSR); experiment: flow cytometry PSR assay: test article on Protein A beads, biotinylated PSR, read-out with SA-PE
[3] = biological target: poly-specificity reagent (PSR); experiment: PSR assay: protein on protein A coated beads, biotinylated PSR, SA-PE, flow cytometry; + PSR panel (Q2 is 0 in the No PSR panel FIG. 43E)

| Substance | % of events in Q2 (Expression-FITC positive, Binding-PE positive), + PSR [1] [%] | % of events in Q2 (Expression-FITC positive, Binding-PE positive), + PSR [2] [%] | % of beads in quadrant Q2 (Binding-PE positive), + PSR [3] [%] |
| --- | --- | --- | --- |
| Ixekizumab (PSR positive control) (antibody) | 79.6 |  |  |
| Ixekizumab (antibody) |  | 79.6 |  |
| Ixekuzumab (antibody) |  |  | 27.1 |
| Rituximab (antibody) |  | 56.2 |  |
| trastuzumab (antibody) | 0.067 | 0.087 |  |
